Earlier results, collected in publication PMC3267162.
Where two headings read alike, the source gives them in different places.

Legend:
[1] = target: PTPzeta (Homo sapiens) (UniProt P23471)
[2] = target: LRP (Homo sapiens) (UniProt Q07954)
[3] = target: PTPzeta (Homo sapiens) (UniProt P23471); remark: listed apart in the source

Chain of UniProt P23471 (P23471 25-1636): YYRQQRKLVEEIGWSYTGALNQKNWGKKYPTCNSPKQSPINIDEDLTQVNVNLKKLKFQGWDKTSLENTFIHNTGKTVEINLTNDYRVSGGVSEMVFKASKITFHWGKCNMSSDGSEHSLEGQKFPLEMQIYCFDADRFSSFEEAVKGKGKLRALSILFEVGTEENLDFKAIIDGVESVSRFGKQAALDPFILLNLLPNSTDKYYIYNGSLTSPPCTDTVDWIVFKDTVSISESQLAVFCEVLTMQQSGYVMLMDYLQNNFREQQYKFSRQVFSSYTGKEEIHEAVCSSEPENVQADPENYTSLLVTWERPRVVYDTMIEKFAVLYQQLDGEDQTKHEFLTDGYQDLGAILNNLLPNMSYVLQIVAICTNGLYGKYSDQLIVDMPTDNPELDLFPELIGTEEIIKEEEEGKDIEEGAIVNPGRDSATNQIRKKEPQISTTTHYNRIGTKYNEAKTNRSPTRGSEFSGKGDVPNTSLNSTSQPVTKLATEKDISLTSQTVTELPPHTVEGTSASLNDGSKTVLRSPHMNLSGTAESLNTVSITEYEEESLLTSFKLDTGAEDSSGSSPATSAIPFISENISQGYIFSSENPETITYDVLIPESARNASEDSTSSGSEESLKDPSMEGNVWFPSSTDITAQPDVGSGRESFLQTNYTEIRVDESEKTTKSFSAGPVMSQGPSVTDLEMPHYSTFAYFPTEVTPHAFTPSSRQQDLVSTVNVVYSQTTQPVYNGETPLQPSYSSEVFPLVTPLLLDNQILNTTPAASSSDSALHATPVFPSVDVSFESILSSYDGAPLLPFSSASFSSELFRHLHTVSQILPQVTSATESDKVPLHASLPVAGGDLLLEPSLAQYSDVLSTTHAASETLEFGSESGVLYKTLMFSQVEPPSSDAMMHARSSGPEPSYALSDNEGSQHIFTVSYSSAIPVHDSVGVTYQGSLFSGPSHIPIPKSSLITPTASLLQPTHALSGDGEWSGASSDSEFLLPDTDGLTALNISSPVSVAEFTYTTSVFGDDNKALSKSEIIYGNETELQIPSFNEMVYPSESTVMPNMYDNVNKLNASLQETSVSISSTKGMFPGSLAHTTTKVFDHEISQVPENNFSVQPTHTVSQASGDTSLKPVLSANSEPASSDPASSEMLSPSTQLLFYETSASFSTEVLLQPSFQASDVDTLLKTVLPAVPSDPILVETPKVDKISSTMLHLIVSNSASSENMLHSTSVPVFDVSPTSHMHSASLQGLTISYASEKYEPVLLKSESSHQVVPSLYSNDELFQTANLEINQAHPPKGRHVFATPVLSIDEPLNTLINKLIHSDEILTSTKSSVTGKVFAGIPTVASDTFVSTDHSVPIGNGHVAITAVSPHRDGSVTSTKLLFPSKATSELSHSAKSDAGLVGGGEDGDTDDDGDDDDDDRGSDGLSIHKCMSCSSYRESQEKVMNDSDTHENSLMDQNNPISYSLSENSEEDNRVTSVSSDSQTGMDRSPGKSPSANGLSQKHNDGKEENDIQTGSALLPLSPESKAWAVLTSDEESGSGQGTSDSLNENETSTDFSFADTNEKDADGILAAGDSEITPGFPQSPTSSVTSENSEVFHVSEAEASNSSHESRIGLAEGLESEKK

Kd [1]: 8.8 nM | Kd [2]: 3.5 nM | Kd [3]: 0.58 nM
Substance: Midkine (from UniProt P21741)
